Results on four molecules are retold here after patent US20260250398A1.

Numbering of substitutions follows the chain as printed.

To fix the notation:
B1: CM0011 (FZD Diabody-Fc-LRP Diabody; paratopes 5019; 2539, 2542) (bispecific antibody)
chain 1: MNLLLILTFVAAAVAEFEVQLVESGGGLVQPGGSLRLSCAASGFNIGSSSIHWVRQAPGKGLEWVASIYSAFASTSYADSVKGRFTISADTSKNTAYLQMNSLRAEDTAVYYCARYHFPFGFALDYWGQGTLVTVSSGGGGSDIQMTQSPSSLSASVGDRVTITCRASQSVSSAVAWYQQKPGKAPKLLIYSASSLYSGVPSRFSGSRSGTDFTLTISSLQPEDFATYYCQQGVYLFTFGQGTKVEIKLEDKTHTKVEPKSSDKTHNCPPCPAPELLGGPSVFLFPPKPKDTLMISRTPEVTCVVVDVSHEDPEVKFNWYVDGVEVHNAKTKPREEQYNSTYRVVSVLTVLHQDWLNGKEYKCKVSNKALPAPIEKTISKAKGQPREPQVYTLPPIRELMTSNQVSLSCAVKGFYPSDIAVEWESNGQPENNYKTTPPVLDSDGSFFLVSKLTVDKSRWQQGNVFSCSVMHEALHNHYTQKSLSLSPGKSGSETPGTSESATPESGGGEVQLVESGGGLVQPGGSLRLSCAASGFNISSYYIHWVRQAPGKGLEWVASIYSSYGYTSYADSVKGRFTISADTSKNTAYLQMNSLRAEDTAVYYCARTVRGSKKPYFSGWAMDYWGQGTLVTVSSGGGGSDIQMTQSPSSLSASVGDRVTITCRASQSVSSAVAWYQQKPGKAPKLLIYSASSLYSGVPSRFSGSRSGTDFTLTISSLQPEDFATYYCQQYSWGPFTFGQGTKVEIK
chain 2: MNLLLILTFVAAAVAEFEVQLVESGGGLVQPGGSLRLSCAASGFNIGSSSIHWVRQAPGKGLEWVASIYSAFASTSYADSVKGRFTISADTSKNTAYLQMNSLRAEDTAVYYCARYHFPFGFALDYWGQGTLVTVSSGGGGSDIQMTQSPSSLSASVGDRVTITCRASQSVSSAVAWYQQKPGKAPKLLIYSASSLYSGVPSRFSGSRSGTDFTLTISSLQPEDFATYYCQQGVYLFTFGQGTKVEIKLEDKTHTKVEPKTSDKTHTCPPCPAPELLGGPSVFLFPPKPKDTLMISRTPEVTCVVVDVSHEDPEVKFNWYVDGVEVHNAKTKPREEQYNSTYRVVSVLTVLHQDWLNGKEYKCKVSNKALPAPIEKTISKAKGQPREPMVFDLPPSREEMTKNQVSLWCMVKGFYPSDIAVEWESNGQPENNYKTTPPVLDSDGSFFLYSKLTVDKSRWQQGNVFSCSVMHEALHNHYTQKSLSLSPGKSGSETPGTSESATPESGGGEVQLVESGGGLVQPGGSLRLSCAASGFNISYSSIHWVRQAPGKGLEWVAYISSYYGYTYYADSVKGRFTISADTSKNTAYLQMNSLRAEDTAVYYCARAHYFPWAGAMDYWGQGTLVTVSSGGGGSDIQMTQSPSSLSASVGDRVTITCRASQSVSSAVAWYQQKPGKAPKLLIYSASSLYSGVPSRFSGSRSGTDFTLTISSLQPEDFATYYCQQYYWPITFGQGTKVEIK
B2: CM0126 (FZD Diabody-Fc-LRP Diabody; paratopes 5016; 2539, 2542) (bispecific antibody)
chain 1: B1 chain 1 with G47H, S67A, I68T, A71S, A73G, T75I, S76T, F118H, F122Y
chain 2: B1 chain 2 with G47H, S67A, I68T, A71S, A73G, T75I, S76T, F118H, F122Y
B3: CT0001 (FZD IgG-LRP Diabody; paratopes 5016; 2539, 2542) (bispecific antibody)
heavy 1: EVQLVESGGGLVQPGGSLRLSCAASGFNIHSSSIHWVRQAPGKGLEWVAATYSSFGSITYADSVKGRFTISADTSKNTAYLQMNSLRAEDTAVYYCARYHHPFGYALDYWGQGTLVTVSSASTKGPSVFPLAPSSKSTSGGTAALGCLVKDYFPEPVTVSWNSGALTSGVHTFPAVLQSSGLYSLSSVVTVPSSSLGTQTYICNVNHKPSNTKVDKKVEPKSCDKTHTCPPCPAPELLGGPSVFLFPPKPKDTLMISRTPEVTCVVVDVSHEDPEVKFNWYVDGVEVHNAKTKPREEQYNSTYRVVSVLTVLHQDWLNGKEYKCKVSNKALPAPIEKTISKAKGQPREPQVYTLPPIRELMTSNQVSLSCAVKGFYPSDIAVEWESNGQPENNYKTTPPVLDSDGSFFLVSKLTVDKSRWQQGNVFSCSVMHEALHNHYTQKSLSLSPGKSGSETPGTSESATPESGGGEVQLVESGGGLVQPGGSLRLSCAASGFNISSYYIHWVRQAPGKGLEWVASIYSSYGYTSYADSVKGRFTISADTSKNTAYLQMNSLRAEDTAVYYCARTVRGSKKPYFSGWAMDYWGQGTLVTVSSGGGGSDIQMTQSPSSLSASVGDRVTITCRASQSVSSAVAWYQQKPGKAPKLLIYSASSLYSGVPSRFSGSRSGTDFTLTISSLQPEDFATYYCQQYSWGPFTFGQGTKVEIK
heavy 2: EVQLVESGGGLVQPGGSLRLSCAASGFNIHSSSIHWVRQAPGKGLEWVAATYSSFGSITYADSVKGRFTISADTSKNTAYLQMNSLRAEDTAVYYCARYHHPFGYALDYWGQGTLVTVSSASTKGPSVFPLAPSSKSTSGGTAALGCLVKDYFPEPVTVSWNSGALTSGVHTFPAVLQSSGLYSLSSVVTVPSSSLGTQTYICNVNHKPSNTKVDKKVEPKSCDKTHTCPPCPAPELLGGPSVFLFPPKPKDTLMISRTPEVTCVVVDVSHEDPEVKFNWYVDGVEVHNAKTKPREEQYNSTYRVVSVLTVLHQDWLNGKEYKCKVSNKALPAPIEKTISKAKGQPREPMVFDLPPSREEMTKNQVSLWCMVKGFYPSDIAVEWESNGQPENNYKTTPPVLDSDGSFFLYSKLTVDKSRWQQGNVFSCSVMHEALHNHYTQKSLSLSPGKSGSETPGTSESATPESGGGEVQLVESGGGLVQPGGSLRLSCAASGFNISYSSIHWVRQAPGKGLEWVAYISSYYGYTYYADSVKGRFTISADTSKNTAYLQMNSLRAEDTAVYYCARAHYFPWAGAMDYWGQGTLVTVSSGGGGSDIQMTQSPSSLSASVGDRVTITCRASQSVSSAVAWYQQKPGKAPKLLIYSASSLYSGVPSRFSGSRSGTDFTLTISSLQPEDFATYYCQQYYWPITFGQGTKVEIK
light: DIQMTQSPSSLSASVGDRVTITCRASQSVSSAVAWYQQKPGKAPKLLIYSASSLYSGVPSRFSGSRSGTDFTLTISSLQPEDFATYYCQQGVYLFTFGQGTKVEIKRTVAAPSVFIFPPSDEQLKSGTASVVCLLNNFYPREAKVQWKVDNALQSGNSQESVTEQDSKDSTYSLSSTLTLSKADYEKHKVYACEVTHQGLSSPVTKSFNRGEC
B4: ANT-1 (LRP Diabody-Fc-FZD Fab; paratopes 2540, 2542; 5016) (bispecific antibody)
heavy 1: MNLLLILTFVAAAVAEFEVQLVESGGGLVQPGGSLRLSCAASGFNISSYYIHWVRQAPGKGLEWVASIYSSYGYTSYADSVKGRFTISADTSKNTAYLQMNSLRAEDTAVYYCARTVRGSKKPYFSGWAMDYWGQGTLVTVSSGGGGSDIQMTQSPSSLSASVGDRVTITCRASQSVSSAVAWYQQKPGKAPKLLIYSASSLYSGVPSRFSGSRSGTDFTLTISSLQPEDFATYYCQQYYFLITFGQGTKVEIKLEDKTHTKVEPKSSDKTHNCPPCPAPELLGGPSVFLFPPKPKDTLMISRTPEVTCVVVDVSHEDPEVKFNWYVDGVEVHNAKTKPREEQYNSTYRVVSVLTVLHQDWLNGKEYKCKVSNKALPAPIEKTISKAKGQPREPQVYTLPPIRELMTSNQVSLSCAVKGFYPSDIAVEWESNGQPENNYKTTPPVLDSDGSFFLVSKLTVDKSRWQQGNVFSCSVMHEALHNHYTQKSLSLSPGKSGSETPGTSESATPESGGGEVQLVESGGGLVQPGGSLRLSCAASGFNIHSSSIHWVRQAPGKGLEWVAATYSSFGSITYADSVKGRFTISADTSKNTAYLQMNSLRAEDTAVYYCARYHHPFGYALDYWGQGTLVTVSSASTKGPSVFPLAPSSKSTSGGTAALGCLVKDYFPEPVTVSWNSGALTSGVHTFPAVLQSSGLYSLSSVVTVPSSSLGTQTYICNVNHKPSNTKVDKKVEPKSCDKTHT
heavy 2: MNLLLILTFVAAAVAEFEVQLVESGGGLVQPGGSLRLSCAASGFNISYSSIHWVRQAPGKGLEWVASISPYYGYTYYADSVKGRFTISADTSKNTAYLQMNSLRAEDTAVYYCARSSYFPWFSAMDYWGQGTLVTVSSGGGGSDIQMTQSPSSLSASVGDRVTITCRASQSVSSAVAWYQQKPGKAPKLLIYSASSLYSGVPSRFSGSRSGTDFTLTISSLQPEDFATYYCQQYYWPITFGQGTKVEIKLEDKTHTKVEPKTSDKTHTCPPCPAPELLGGPSVFLFPPKPKDTLMISRTPEVTCVVVDVSHEDPEVKFNWYVDGVEVHNAKTKPREEQYNSTYRVVSVLTVLHQDWLNGKEYKCKVSNKALPAPIEKTISKAKGQPREPMVFDLPPSREEMTKNQVSLWCMVKGFYPSDIAVEWESNGQPENNYKTTPPVLDSDGSFFLYSKLTVDKSRWQQGNVFSCSVMHEALHNHYTQKSLSLSPGKSGSETPGTSESATPESGGGEVQLVESGGGLVQPGGSLRLSCAASGFNIHSSSIHWVRQAPGKGLEWVAATYSSFGSITYADSVKGRFTISADTSKNTAYLQMNSLRAEDTAVYYCARYHHPFGYALDYWGQGTLVTVSSASTKGPSVFPLAPSSKSTSGGTAALGCLVKDYFPEPVTVSWNSGALTSGVHTFPAVLQSSGLYSLSSVVTVPSSSLGTQTYICNVNHKPSNTKVDKKVEPKSCDKTHT
light: B3 light

This test has as its target FZD1/2/4/5/7/8. The test can be described thus: cell-based or functional assay.
B1 showed a TOPFLASH % Wnt Maxima of 63 % Wnt Maxima and a TOPFLASH EC50 of 0.3 nM.

In turn, B2 had a TOPFLASH % Wnt Maxima of 52 % Wnt Maxima and a TOPFLASH EC50 of 0.3 nM.

Molecule B3 came in with a TOPFLASH % Wnt Maxima of 57 % Wnt Maxima and a TOPFLASH EC50 of 0.3 nM.

The molecule B4 gave a TOPFLASH % Wnt Maxima of 49 % Wnt Maxima, a TOPFLASH EC50 of 0.7 nM and a TOPFLASH Maximal Signal (% Wnt3a maxima) (% Wnt3a maxima) of 50.
